Columns and labels:
[1] = test system: SHS231 right TALEN (synthetic); assay: cell_activity; settings: as pair with left TALEN; 1/81 clones, 293T
[2] = test system: SHS231 left TALEN (synthetic); assay: cell_activity; settings: as pair with right TALEN; 1/81 clones, 293T

Sequence: TGTATGCTTTCCTCTTGTTA (double strand) [SHS231 right TALEN half-site]
- activity (% targeted integration) [1]: 1.23

Sequence: TTGGCTAGGGCTAAGGATTA (double strand) [SHS231 left TALEN half-site]
- activity (% targeted integration) [2]: 1.23
